The nature of the data set: soluble on expression in E. coli; label from the status in PepcDB or PDB records.
Turning to “MGLVGLHSGTIDMEFIGVEDHGDEEGKQIAVSVISSGKNADKTEDPDSLIFTGFGGTDMYHGQPCNQKLERLNIPLEAAFRKKSIVRVVRCMKDEKRTNGNIYIYDGTYMITNRWEEEGQNGFIVFKFKLVREPDQKPAFGIWKSIQNWRNGLSIRPGLILEDLSNGAENLKVCLVNEVDKENGPALFRYVTSLIHEVINNIPSMVDRCACGRRSCGSKHVFREKLSVSSSLVISAKKSGNVARFMNHSCSPNVFWQSIAREQNGLWCLYIGFFAMKHIPPLTELRYDYGKSRGGGKKMCLCRTKKCCGSFG”, the “soluble on expression in E. coli” value was “soluble”.
Under “MGSDKIHHHHHHMDHEQIESQPWPQEGLERVERCPICGEVDRALLHDGLTDKIFFCAPGRWSLYQCPTCGAAYLDPRPTPATIAMAYSDYYTHEEGDDAPKGRFAHLKRRLRNDYLNARYNADLQPAWKVGRWITPLLGRKRKQIDESVRHLPATGKPGVLVDIGCGNGQFLGVAMQLGWEAWGVDLDPKAVKTAQKTGATVIQGGFPDTGLPSAHFDIVTLSHVIEHVHDPLAALREAFRVLKPGGHLWLATPNMGSFGHVRFGADWRGLEPPRHLVLFNNNSLEIALDGAGFIDIKQKPCLAQAAWFYQSSLRISRCQDPYDASASGLPLTLWIAAKLVDFRVAVSPFRCESIVVTAKRPESD” stands “not soluble”; under “MGSDKIHHHHHHMAELNKTKVRKELRTERPSIYSFELDEIKQWLTDNGEKPFRAAQIFEWLYEKRVSSFEDMTNLSKDLREKLNTRFVLTTLKTAVKQTSQDGTMKFLFELHDGYTIETVLMRHEYGNSVCVTTQVGCRIGCTFCASTLGGLKRNLEAGEIVAQVVKVQKALDETDERVSSVVIMGIGEPFDNFNEMLAFLKIINHDKGLNIGARHITVSTSGIIPKIYEFADQQMQINFAISLHAPNTEIRSRLMPINRAYKLPDLMEAVKYYINKTGRRISFEYGLFGGVNDQVEHAEELADLLEGVKCHVNLIPVNYVPERDYVRTPRDQIFAFEKTLKSRGVNVTIRREQGHDIDAACGQLRAKERQDETR”, “not soluble”.
As to “MGHHHHHHSHMNSRRRKAQFFLGTTNKRAKTVVLHIDGLDDTSRRNLCEEALLKIKGVISFTFQMAVQRCVVRIRSDLKAEALASAIASTKVMKAQQVVKSESGEEMLVPFQDTPVEVEQNTELPDYLPEDESPTKEQDKAVSRVGSHPEGGASWLSTAANFLSRSFYW”, the “soluble on expression in E. coli” value is recorded as “not soluble”.
For “MAVSLPTKYPLRPITNIPKSHRPSLLRVRVTCSVTTTKPQPNREKLLVEQRTVNLPLSNDQSLQSTKPRPNREKLVVEQRLASPPLSNDPTLKSTWTHRLWVAAGCTTLFVSLAKSVIGGFDSHLCLEPALAGYAGYILADLGSGVYHWAIDNYGDESTPVVGTQIEAFQGHHKWPWTITRRQFANNLHALAQVITFTVLPLDLAFNDPVFHGFVCTFAFCILFSQQFHAWAHGTKSKLPPLVVALQDMGLLVSRRQHAEHHRAPYNNNYCIVSGAWNNVLDESKVFEALEMVFYFQLGVRPRSWSEPNSDWIEETEISNNQA” the value was “soluble”; for “MGSDKIHHHHHHMDPRRRLVPDIITLQAFECAARHGNFTRAAEELNLTQSAVSRQIGELEAQTGMQLFERIRRRVVLSEAGRKFLPDVRRLLQQSEQLMVRAVSAGTSHASLSVATLPTFGSRWLMPRLSRFIDANPDMTITIGSRSHPFDFDEEGFDLAIHYGQPIWAHGTCTFLCNEVIVPVASPALLRRAGVNRAQDLAGQPLLHVTTRPKLWTEWLEMNGVTADNAYQGSRFDQFSMIIEAAASGIGFALLPRYLIEAELASSRLEIVFDIPLQTDKSYYVALPEGRQDNVLARAFQAWLLDQVGKPV”, “not soluble”; for “MKLAAMIKKMCPSDSELSIPAKNCYRMVILGSSKVGKTAIVSRFLTGRFEDAYTPTIEDFHRKFYSIRGEVYQLDILDTSGNHPFPAMRRLSILTGDVFILVFSLDNRDSFEEVQRLRQQILDTKSCLKNKTKENVDVPLVICGNKGDRDFYREVDQREIEQLVGDDPQRCAYFEISAKKNSSLDQMFRALFAMAKLPSEMSPDLHRKVSVQYCDVLHKKALRNKKLLRAGSGGGGGDPGDAFGIVAPFARRPSVHSDLMYIREKASAGSQAKDKERCVIS”, “soluble”.
For “MGSDKIHHHHHHMTQEMILANATLILAGETRTGCVKISDSVIADIADGSSVPAGAVDLEGDFLSPGLVELHTDNLERHIEPRPGVDWPHAAALVAHDAELASTGITTVFDAMRVGSIPSGKGRYIKYARQLASEMLDLRTKDMLKISHFLHLRAEVCSETLAEELAEFTAEDRVGLVSLMDHTPGQRQFRDIAKLEQYVKSKRGMSDEEFINHVAQLKDLRARFGDLHEATTVAEAARFGAVLASHDDTTADQVQTSAGHGIRLAEFPTTVEAARACHAHGIKVMMGAPNLIRGGSHSGNVAARELADLELLDIVSSDYIPAALLQAAVKLGEIWGDLARGMATVTAAPAASVGLTDRGVLEVGKRADLIRFRTREGVPMLRAVYSRGARVA” the value was “not soluble”; for “MTATSSPTTRFTDRVVLITGGGSGLGRATAVRLAAEGAKLSLVDVSSEGLEASKAAVLETAPDAEVLTTVADVSDEAQVEAYVTATTERFGRIDGFFNNAGIEGKQNPTESFTAAEFDKVVSINLRGVFLGLEKVLKIMREQGSGMVVNTASVGGIRGIGNQSGYAAAKHGVVGLTRNSAVEYGRYGIRINAIAPGAIWTPMVENSMKQLDPENPRKAAEEFIQVNPSKRYGEAPEIAAVVAFLLSDDASYVNATVVPIDGGQSAAY”, “soluble”.
Under “MSLDLKRLKGSERVRKRVSVMMGSDDIRGCQHTLFEIVSNSIDRHRKGFGNYIKVIKHEDLSYTIIDHADGLPMDWNEKEHAYNWDLALKVLYAGDNYDANSTALGLNGLGLCSSQYASEFMEVISYKEDKKYTVKCKKGRPIDKETGEFICEDDDNLFTKEQGNRVLLVESNTENKTGTYIHYKPDLEVFTNIDISIDWINDKLDKQSMVNKGLKIEIYDEKEDRLYTHFYESGIKDYIKTISNDNNFSDVIYFTDKGKGRDKADKPEYDYNYEIALVFNNEINRLEYYHNSSELLQGGSTSDAISLAFTYAINEYAKNNNVFNKNESKIKFTDIQDSLICVISSFSTMTSYANQTKLSIDNKFIKDFTNQSLKEKLKLYFIENKLEADRIVNQILINKRANDKAEKSKIEIRNKEGHHHHHH” stands “soluble”.
For the sequence “MGRYKDETPAVRVYTVCDESRYMIVRNVPALGCGDDLMRLFMTYGEVEEFAKRKLDESSFLGNRLQISYAPEYENVNDTKDKLESRRKEVLARLNPQKEKSTSQVTKLAGPALTQTDNVSSQRREMEYQFHRGNAPVTRVSSDQEYFASSSMNQTVKTVREKLNKTREENISSLSHCKQIEESGNQKRLQPSSQTQPEESGNQKRLQPSSQIQPDLKRTRVDNRRRI”, the “soluble on expression in E. coli” value is “not soluble”.
For “MSLKINRIVNEGFMKTMLAAYLLGNSTVDLREVAVPTPGINQVLIKMKSSGICGSDVHYIYHQHRATAAAPDKPLYQGFINGHEPCGQIVAMGQGCRHFKEGDRVLVYHISGCGFCPNCRRGFPISCTGKGKAAYGWQRDGGHAEYLLAEEKDLILLPDALSYEDGAFISCGVGTAYEGILRGEVSGSDNVLVVGLGPVGMMAMMLAKGRGAKRIIGVDMLPERLAMAKQLGGMDHGYLATTEGLPQIIAELTHGGADVALDCSGNAAGRLLALQSTADWGRVVYIGETGKVEFEVSADLMHHQRRIIGSWVTSLFHMEKCAHDLTDWKLWPRNAITHRFSLEQAGDAYVLMASGKCGKVVINFPDEGHHHHHH” the value was “not soluble”; for “MVAIIFDMDGVLYRGNRAIPGVRELIEFLKERGIPFAFLTNNSTKTPEMYREKLLKMGIDVSSSIIITSGLATRLYMSKHLDPGKIFVIGGEGLVKEMQALGWGIVTLDEARQGSWKEVKHVVVGLDPDLTYEKLKYATLAIRNGATFIGTNPDATLPGEEGIYPGAGSIIAALKVATNVEPIIIGKPNEPMYEVVREMFPGEELWMVGDRLDTDIAFAKKFGMKAIMVLTGVSSLEDIKKSEYKPDLVLPSVYELIDYLKTL”, “soluble”.
For “MKRWIAIILIALMPAAQAGKAAKVTLVVDDVPVVQVLQTLAEQERQNLVVSPDVSGTLSLHLTDVPWKQALQTVVNSAGLVLRQEGNILHVHSQAWQKEHSARQDAERLRFQANLPLENRSISLQYADAGELAKAGEKLLSAKGTIMVDKRTNRLLLRDNRAALAELEKWVSQMDLPVAQVELAAHIVTINEKSLRELGVKWTLADATQAGSVGDVTTLSSDLSVAAATSRVGFNIGRINGRLLDLELSALEQKQLLDIIASPRLLASHLQPASIKQGSEIPYQVSSGESGATSVEFKEAVLGMEVTPTVLQKGRIRLKLHISQNVPGQVLQQADGEVLAIDKQEIETQVEVKSGETLALGGIFSRKNKSGSDSVPLLGDIPWLGQLFRHDGKEDERRELVVFITPRLVATELEHHHHHH” the value was “soluble”.
Under “MSLDTTPEHLVGTDAETIDLSFAAPAAPVEILHAAFATALEQLPRHFERHGYDRYGTAELREAVARWYQRRGLPTRPDHILITNGAQHALALLTRVLLSPRDKVLIDHPTYPHAITTFTQARARLLPVAVTSSGWDTEQLQAAGQAANLAYLIPDFHNPTGMCMPTSVRQQLRLACPTVVDETMTDLALDVPSPEPLALHMPTAISIGSVSKSVWGGLRTGWIRALPSLLERVEQARPTTDLGTPVVEQLATAVLLNEHQTQRPDTLQQLRSQRDALWQALTEHLPNVHAPQPAGGVTLWAAFPGPVSSRLAAMAPDHGVTIAAGPRFGIGGAFERNIRLPYTLPSSQLAQAIRRLAQAAQALAQGATGTEGHHHHHH” stands “not soluble”.
For “MERPQPDSMPQDLSEALKEATKEVHTQAENAEFMRNFQKGQVTRDGFKLVMASLYHIYVALEEEIERNKESPVFAPVYFPEELHRKAALEQDLAFWYGPRWQEVIPYTPAMQRYVKRLHEVGRTEPELLVAHAYTRYLGDLSGGQVLKKIAQKALDLPSSGEGLAFFTFPNIASATKFKQLYESRMNSLEMTPAVRQRVIEEAKTAFLLNIQLFEELQELLTHDTKDQSPSRA”, the “soluble on expression in E. coli” value is “soluble”.
For “MPSRLSLIAALLLPLAVQAEPADTRALLADSLADSQAQVEAAEQAMRRSENKAVQLYAKRVLTEQQEFDHQLRALAGEKALALPSPRQTERQAAAPGGFDERGFLDAQIRQQDRLVARFEGIARDSADPDLRRFADEWLARFYHHRELADQLRSGRAD” the value was “not soluble”; for “MPMIIKQEQFIPKDTVETTIDLLIRNLTTIKDNTGEFLLDFDGLKVDDKSWTIWNWPQGVGLYGIYKNYRNTKSEKALQVVNDWFEGRMQEGAPPKNVNTMAPLLTMAYLYEDTKDSKYIPYLEQWAEWVMEEMPRTNEGGLQHATYGPENKNQLWDDTLMMTVLPLAKIGKLLNRLDYLEEAKHQFLIHIKYLQDKKSGLWYHGWTFEGNHNYAEALWARGNCWITIAIPEIIEILELPKGDSLREFLLSTLNAQVAALAKYQDESGLWHTLINDSNSYLESSATAGFAYGILKAVHKKYISSEYEEVANKAIAGLLNEIDETGEVQHVSVGTGMGDNLDFYRTIGMTAMPYGQSLTILCLTELLVSYC”, “not soluble”; for “MSEKPLTKTDYLMRLRRCQTIDTLERVIEKNKYELSDNELAVFYSAADHRLAELTMNKLYDKIPSSVWKFIR”, “soluble”.
For “MSDATNNAVLVRNLSPEVTKQTLLDFFSFCGEISAVKIRPSVGEGGSSSSGSPTEAMEALVIFENQSAKKTALVLDSATLKKRKISVMDATEELVSSFKDVREVDLARDSTDVPETATARQERLQGLREEFDRAIKRASDKLSDFNEKHRITEKVQEFGDLTKRKTQEINEQYRLTERAREGWQTVREKTRELDERLHLSESARDGWRSLKASVSKIMQKDRGGEVDKA” the value was “soluble”.

The values above are taken from the DeepSol protein solubility set.
